Results reported in PMC12408356 (Nature Microbiology, 2025).

B1: CR1-10 (antibody, V domains shown)
VH: QVQLQESGPGLVKPSQTLSLTCSVSGGSIGGSSYYWSWIRHHPGKGLEWIGYINYRGITHYNAALKSRVSMSVETSQNHFSLQLTSVTAADTAVYYCARLTSDCSGGNCYQAFDYWGQGSLVSVS
VL: EIVLTQSPGTLSLSPGETATLSCRASQSVSSSYLAWYQQKPGQAPRLLIYGASGRATGIPDRFSGSGSGTDFTLTISRLEPEDFAVYYCQQYGRSGYTFGQGTKLEIK
B2: CR1-28 (antibody, V domains shown)
VH: QVQLVESGGGVVQPGRSLRLSCAASGFTFSSSAMHWVRQAPGKGLEWVAVIWSDGSNENYADSVKGRFTISRDNSKNTLYLQMSSLRAEDTAVYYCATDKTYVSGYTSTWYYFNYWGQGTLVTVS
VL: DIQMTQSPSTLSASVGDRVTITCRASQSIDNWLAWYQQKPGKAPKLLIYTASRLESGVPSRFSGSGSGTEFTLTISSLQPDDFATYYCQHRTFGQGTKVEIK
B3: CR1-07 (antibody, V domains shown)
VH: QVQLVESGGGVVHPGRSLRLSCAASGFTFGTSIMHWVRQAPGKGMQWVAQISHDESRKFYSDSVKGRFTVSRDNSKNTLFLEMSSLRIEDTAVYYCAKDLSPPYSYAWDIFQYWGQGSLVTVS
VL: DIVMTQSPESLAVSLGERATINCKSSQSVLYSSRSDNKDYLAWYQQKPGQSPKLLIYWASTRESGVPERFTGSGSGTDFTLSISSLQAEDVAVYYCQQYYSSPPTFGGGTKVELK

molecular target: T1, JUNV GPC MC2-TS (wild-type Junin virus glycoprotein complex) (Junin virus, MC2 strain, UniProt P26313, myristoyl on G2 | N-linked glycans | N-linked glycans); experiment: flow cytometry on cells; conditions: one partner purified
T1 construct: copies: 3 + 3 + 3
T1 sequence (P26313 2-58, chain 1 of 3): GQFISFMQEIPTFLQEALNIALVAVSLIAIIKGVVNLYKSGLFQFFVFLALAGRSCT
T1 sequence (P26313 59-251, chain 2 of 3): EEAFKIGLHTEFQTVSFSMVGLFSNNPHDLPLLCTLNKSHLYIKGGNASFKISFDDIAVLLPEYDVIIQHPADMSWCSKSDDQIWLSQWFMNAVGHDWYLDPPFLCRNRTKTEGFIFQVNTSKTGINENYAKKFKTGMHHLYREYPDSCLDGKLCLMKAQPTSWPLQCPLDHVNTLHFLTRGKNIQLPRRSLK
T1 sequence (P26313 252-485, chain 3 of 3): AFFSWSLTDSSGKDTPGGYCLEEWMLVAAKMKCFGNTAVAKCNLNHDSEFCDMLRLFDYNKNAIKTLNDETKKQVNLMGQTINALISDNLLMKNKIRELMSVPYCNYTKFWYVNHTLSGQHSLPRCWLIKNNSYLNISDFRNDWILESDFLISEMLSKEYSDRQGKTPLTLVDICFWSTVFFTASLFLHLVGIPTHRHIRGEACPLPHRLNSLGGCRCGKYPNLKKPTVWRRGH

Binder	binding result
B1	binds
B2	binds
B3	binds
